In patent publication US20260258113A1 (US Dept. of Health and Human Services, published 2026):

Target: T1, purified human alpha globin, biotinylated and immobilized on streptavidin biosensors (human, UniProt P69905 2-142, biotinylated using EZ-Link NHS-PEG4 Biotinylation Kit (sites not given))
T1 construct: Ligand on the sensor in the bio-layer interferometry assay; also called full-length alpha globin
Test: bio-layer interferometry (Octet RED96), biotinylated alpha globin on streptavidin sensors, AHSP in solution at 62.5-1000 nM; AHSP as analyte on immobilized alpha globin (FIG. 2D)

T1 sequence (P69905 2-142 limits assumed): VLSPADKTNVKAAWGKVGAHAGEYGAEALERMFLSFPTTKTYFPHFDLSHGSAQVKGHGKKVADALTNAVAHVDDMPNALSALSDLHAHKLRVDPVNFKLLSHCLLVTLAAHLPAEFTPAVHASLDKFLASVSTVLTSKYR

B1: alpha hemoglobin stabilizing protein (other, UniProt Q9NZD4 1-102, looked up)
chain: MALLKANKDLISAGLKEFSVLLNQQVFNDPLVSEEDMVTVVEDWMNFYINYYRQQVTGEPQERDKALQELRQELNTLANPFLAKYRDFLKSHELPSHPPPSS
notes: Comparison analyte in the BLI assay; also called AHSP
For B1, the Kd was 109 nM.
